{"source": "paper PMC4197441", "about": "“Phosphoinositide 3-kinase p85beta regulates invadopodium formation” (Biology Open, 2014)", "biological_target": "T1, focal adhesion kinase (mouse (endogenous in NIH3T3), UniProt P34152 1-1052)", "T1 construct": "focal adhesion kinase (FAK), endogenous in NIH3T3 fibroblasts, immunoprecipitated with anti-FAK Ab (BD Bioscience); also called FAK; Ptk2; source: endogenous, NIH3T3 cell extract", "T1 sequence (P34152 whole entry)": "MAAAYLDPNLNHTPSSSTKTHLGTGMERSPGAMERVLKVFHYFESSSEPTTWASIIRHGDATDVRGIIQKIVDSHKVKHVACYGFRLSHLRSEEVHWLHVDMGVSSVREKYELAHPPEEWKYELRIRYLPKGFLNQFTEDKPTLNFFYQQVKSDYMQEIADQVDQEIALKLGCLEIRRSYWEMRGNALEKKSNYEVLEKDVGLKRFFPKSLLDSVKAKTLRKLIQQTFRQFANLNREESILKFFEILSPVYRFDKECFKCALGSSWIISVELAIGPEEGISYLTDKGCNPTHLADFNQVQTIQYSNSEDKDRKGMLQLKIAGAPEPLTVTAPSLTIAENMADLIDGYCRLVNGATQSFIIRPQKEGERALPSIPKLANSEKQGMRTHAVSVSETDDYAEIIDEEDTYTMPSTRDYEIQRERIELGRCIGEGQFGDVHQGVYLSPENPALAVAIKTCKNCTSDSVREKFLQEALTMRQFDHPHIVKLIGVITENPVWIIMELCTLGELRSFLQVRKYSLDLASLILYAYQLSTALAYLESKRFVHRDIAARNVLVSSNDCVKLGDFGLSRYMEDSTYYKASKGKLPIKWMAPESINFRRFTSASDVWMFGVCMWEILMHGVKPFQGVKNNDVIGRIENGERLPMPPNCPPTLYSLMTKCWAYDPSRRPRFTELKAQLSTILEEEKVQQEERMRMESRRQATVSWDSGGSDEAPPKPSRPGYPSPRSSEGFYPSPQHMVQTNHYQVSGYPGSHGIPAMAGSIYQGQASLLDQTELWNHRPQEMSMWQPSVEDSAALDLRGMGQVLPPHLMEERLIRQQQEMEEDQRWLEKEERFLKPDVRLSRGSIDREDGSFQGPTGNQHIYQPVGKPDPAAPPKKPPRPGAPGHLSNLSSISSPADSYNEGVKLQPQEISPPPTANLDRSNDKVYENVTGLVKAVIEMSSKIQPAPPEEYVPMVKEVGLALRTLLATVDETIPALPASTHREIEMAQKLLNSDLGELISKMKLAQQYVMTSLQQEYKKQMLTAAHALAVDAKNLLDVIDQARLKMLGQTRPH", "test": "co-IP; NIH3T3 cell extracts (500 µg, TX-100 lysis buffer) immunoprecipitated with anti-FAK Ab, WB with anti-HA Ab; cells without serum 16 h, then 10% serum (in suspension), FN, or FN plus serum for 20 or 60 min", "settings": "partners not purified"}
{"binder": "recombinant HA-tagged p85β (regulatory subunit of phosphoinositide 3-kinase) (natural protein, p85β regulatory subunit of PI3K, murine cDNA (from pT7/T3-U19) subcloned into pSG5; the p85β ATG codon was replaced with a proline residue and the ATG of the HA tag kept; The only change is the first methionine to proline at the junction with the N-terminal HA tag; also called rHAp85β; HA-p85β; source: NIH3T3, transfected (pSG5), in cell extract; not shown: HA, N-terminal, kept) not shown", "values": [{"measurement": "fold amount co-precipitated with FAK relative to rHAp85α", "result": 5, "unit": "fold"}]}
